Patent publication US11904004B2, “Anti-CD277 antibodies” (INSTITUT NATIONAL DE LA SANTE ET DE LA RECHERCHE MEDICALE …, priority 2010, dated 2024)

Legend:
monocytes [1] = experiment: Costimulatory molecules expression on monocytes, flow cytometry; assay type: cell-based, human
Protocol: (§1) Blood samples were obtained from 5 healthy volunteers enrolled among the staff members, after informed consent. Monocytes were separated from peripheral blood mononuclear cells, and isolated using the MACS CD14 isolation kit (Miltenyi Biotech, Auburn, Calif. USA). Monocytes were cultured for 5 days with 200 ng/ml of recombinant human GM-CSF and 10 ng/ml recombinant human IL-4 (Schering-Plough Research Institute). These cells were termed immature dendritic cells (iDC). To achieve the stimulation, monocytes and iDC were cultured with 10 ng/ml of LPS, ligand for TLR4, 30 μg/ml of 8848 (Sigma-Aldrich, Milano, Italy), ligand for TLR7/8 and with […] of poly (I:C) (Sigma-Aldrich), ligand for TLR3, and were harvested after 48 h. The cells were cultured in RPMI 1640 supplemented with 10% heat-inactivated FCS, 5 mM L-glutamine and 50 IU/ml penicillin-streptomycin (from here on referred to as complete medium).
Monocytes and iDCs before and after stimulation were analysed by imunofluorescence flow cytometry (FACScalibur Becton Dickinson, Milano, Italy) to verify their activation state. To this end, mAb specific for CD80, CD86, HLA-DR, CD1a, CD14 (BD Becton Dickinson), BT3 (clone 20.1, IgG1) and BT3 Fab2 were previously selected, purified and characterised (Bensussan and Olive, 2005, Compte et al., 2004) or irrelevant molecules (anti-CD19, Becton Dickinson, and anti-CD31, clone Moon-1, provided by F. Malavasi, both IgG1) were used. All the available anti-BT3 mAbs are unable to discriminate among the three members of this family (BT3.1, BT3.2, or BT3.3), probably due to their high sequence homology (Compte et al., 2004, Bensussan and Olive, 2005). As further control, to block the possible effect of trace amounts of endotoxin, polymyxin B (10 μg/ml, Sigma-Aldrich) was added to the anti-BT3 mAb 20.1 before adding the cells.

monocytes [2] = experiment: Apoptosis detection (Annexin V), survival of monocytes; assay type: cell-based, human; conditions: both monocytes and iDC; data not shown
Protocol: as §1
Monocytes and iDC were cultured on plastic coated with anti-BT3 mAb (clone 20.1) or with isotype-matched irrelevant mAb. As control, the cells were stimulated with 20 ng/ml recombinant human GM-CSF (Schering-Plough Research Institute). After three days, cells were harvested, stained with Annexin V-FITC (Bender MedSystems, Wien, Austria) and analysed by flow cytometry.

primary AML blasts [3] = experiment: NSG mouse/human primary AML blasts xenograft model; assay type: in vivo; conditions: NSG mice, UPN09 blasts; 250 μg mAb with 15×10^6 Vγ9Vδ2 T cells i.v. twice a week, weeks 8 to 10 post-graft
Source text: NOD-SCID common γ-chain knockout mice (NSG) were purchased from Charles River France or bred in-house and maintained under specific pathogen-free conditions. All animal procedures were in accordance with protocols approved by the local Committee for Animal Experiments. Healthy 6- to 8-weeks-old female mice (n=15) received an injection of 0.2×10^6 luciferase transduced-U937 cells on Day 0, as described^13, and were then randomly assigned in 5 groups to receive intravenous injections of post-expansion-purified Vγ9Vδ2 T cells on Day 1 (30×10^6, 98.8% CD3+TCRVδ2+; Unité de Thérapie Cellulaire et Génique de Nantes) alone or combined to anti-BTN3A 20.1 mAb (250 μg) on Day 2 and 6. Controls comprised NSG mice infused with PBS, or anti-BTN3A 20.1 mAb alone. Mice were imaged with a Photon Imager (Biospace Lab, Paris, France) at different days. For the Primary AML blasts model, NSG mice received sublethal irradiation (2 Gy). On the day after, they received 1×10^6 of CD3-depleted blasts (CD3 depletion Kit, Miltenyi Biotec) isolated from UPN09. […] The peripheral blood number of blasts was quantified during engraftment, before and after treatment by Flow Cytometry (supplementary data 1B). Mice were sacrificed at week 11th post-graft and the number of blasts was quantified in their Bone Marrow (BM).

primary AML blasts [4] = experiment: Chromium release assay, lysis of primary AML blasts by NK cells; assay type: cell-based, human
Protocol: Effector γδ T cells were established and maintained as previously described^28. PBMC from HV were stimulated with ZOL (1 μm) and rhlL-2 (200 IU/ml) at Day 0. From Day 5, rhIL-2 was renewed every two days and cells were kept at 1.5×10^6/m1 for 15 days. NK cells were isolated using EASYSEP® Human NK cell enrichment kit (StemCell Technologies). The purity of γδ T cells and NK cells was determined by flow cytometry and respectively greater than 80% and 98%. The Burkitt lymphoma cell line, DAUDI, the human AML cell line, U937, and the erythroleukemic cell line, K562, were obtained from the American Type Culture Collection and cultured (0.5×10^6/ml) in RPMI 1640 medium with 10% FCS. […]
0.5×10^6 target cells were incubated with 50 pCi of ^51Cr (Perkin-Elmer) for AML blasts and 10 pCi for DAUDI and K562 cells for 90 minutes and mixed with effector cells in a Effector:Target (E:T) ratio of […]. After 4 hours of incubation at 37° C., 50p1 supernatant of each sample was transferred in LUMA® plates and radioactivity was determined by a gamma counter. The percentage of specific lysis was calculated using the formula [(experimental−spontaneous release/total−spontaneous release)×100] and expressed as the mean of triplicate.

B1: mAb 20.1: murine anti-CD277 antibody obtainable from the hybridoma CNCM I-4402; agonist (antibody, V domains shown)
VH: QVQLQQSGAELVKPGASVKLSCKASGYTFTRYYLYWVKQRPGQGLEWIGEINPNNGGTKFNEKFKSKATLTVDKSSRTTYIQLSSLTSEDSAVYYCSREDDYDGTPDAMDYWGQGTAVTVSS
VL: DIQMNQSPSSLSASLGDTITITCHASQNINLWLSWYQQRPGNIPKLLIYRASNLHTGVPSRFSGSGSATGFTLTISSLQPEDIATYYCQQGHSYPYTFGGGTKLDIK
- CD80 and HLA-DR molecules at the monocyte surface (monocytes [1]; coated mAb): up-regulation
- cell surface costimulatory molecule CD86 on monocytes (monocytes [1]; coated mAb, 24 h stimulation): up-regulation
- activating effect in the presence of polymyxin B (monocytes [1]; polymyxin B 10 μg/ml): maintained
- cellular activation with non-coated (soluble) mAb (monocytes [1]; soluble mAb, no cross-linking, data not shown): no effect
- lowest anti-BT3 mAb dilution able to promote a good survival capability (monocytes [2]): 10 µg/mL
- circulating blasts (Percentage of variation of the absolute number of blasts in blood before and 4 days after the end of treatment) (primary AML blasts [3]): 37.38±39.89
- NK cells-mediated AML blasts lysis (primary AML blasts [4]): no effect
